Paper PMC3105425

Biological target: truncated form of ribosomal protein L2 (E. coli) (UniProt P60422)
Assay: ELISA

DnaAΔ129 lacking the N-terminal 129 residues, sequence (P03004 130-467, stated change not applied): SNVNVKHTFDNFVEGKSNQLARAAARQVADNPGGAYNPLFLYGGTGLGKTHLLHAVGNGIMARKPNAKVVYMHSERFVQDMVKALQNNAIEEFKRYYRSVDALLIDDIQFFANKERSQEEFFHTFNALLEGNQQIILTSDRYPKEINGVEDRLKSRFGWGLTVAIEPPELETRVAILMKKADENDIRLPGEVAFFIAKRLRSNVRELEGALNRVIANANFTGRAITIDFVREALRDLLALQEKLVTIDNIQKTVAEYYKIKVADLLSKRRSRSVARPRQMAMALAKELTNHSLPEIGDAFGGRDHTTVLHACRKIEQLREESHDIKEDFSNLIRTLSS

- fold reduction of the interaction against wild-type DnaA: 4 fold
Substance: DnaAΔ129 lacking the N-terminal 129 residues (from UniProt P03004 130-467) (domain or fragment)
